Source: patent US20200353049A1
Several values for one entry are separate records, joined by “and”; a condition that tells them apart may be missing. Equal entries are not always repeated.

Assays:
[1] = target: IL-22R1a extracellular domain (ECD) (UniProt Q8N6P7); test: binding ELISA on plate-coated IL-22R1a ECD, relative to Reference Standard (100%); T=0
[2] = target: IL-22R1a extracellular domain (ECD) (UniProt Q8N6P7); test: as above; remark: listed apart in the source
[3] = target: IL-22R1a extracellular domain (ECD) (UniProt Q8N6P7); test: binding ELISA on plate-coated IL-22R1a ECD, relative to Reference Standard (100%); stored 5 C, 1 month
[4] = target: IL-22R1a extracellular domain (ECD) (UniProt Q8N6P7); test: potency assay (binding ELISA on plate-coated IL-22R1a ECD), relative to reference standard (100%); T=0
[5] = target: IL-22R1a extracellular domain (ECD) (UniProt Q8N6P7); test: binding ELISA on plate-coated IL-22R1a ECD, relative to Reference Standard (100%); stored 5 C, 3 months
[6] = target: IL-22R1a extracellular domain (ECD) (UniProt Q8N6P7); test: binding ELISA on plate-coated IL-22R1a ECD, relative to Reference Standard (100%); stored -20 C, 6 months
[7] = target: IL-22R1a extracellular domain (ECD) (UniProt Q8N6P7); test: binding ELISA on plate-coated IL-22R1a ECD, relative to Reference Standard (100%); stored -20 C, 3 months
[8] = target: IL-22R1a extracellular domain (ECD) (UniProt Q8N6P7); test: binding ELISA on plate-coated IL-22R1a ECD, relative to Reference Standard (100%); stored -20 C, 36 months
[9] = target: IL-22R1a extracellular domain (ECD) (UniProt Q8N6P7); test: binding ELISA on plate-coated IL-22R1a ECD, relative to Reference Standard (100%); stored -20 C, 48 months
[10] = target: IL-22R1a extracellular domain (ECD) (UniProt Q8N6P7); test: binding ELISA on plate-coated IL-22R1a ECD, relative to Reference Standard (100%); stored -20 C, 12 months
[11] = target: IL-22R1a extracellular domain (ECD) (UniProt Q8N6P7); test: binding ELISA on plate-coated IL-22R1a ECD, relative to Reference Standard (100%); stored -20 C, 18 months
[12] = target: IL-22R1a extracellular domain (ECD) (UniProt Q8N6P7); test: binding ELISA on plate-coated IL-22R1a ECD, relative to Reference Standard (100%); stored -20 C, 24 months
[13] = target: IL-22R1a extracellular domain (ECD) (UniProt Q8N6P7); test: binding ELISA on plate-coated IL-22R1a ECD, relative to Reference Standard (100%); stored -20 C, 36 months; remark: listed apart in the source
[14] = target: IL-22R1a extracellular domain (ECD) (UniProt Q8N6P7); test: potency assay (binding ELISA on plate-coated IL-22R1a ECD), relative to reference standard; 40 C stress, day 0
[15] = target: IL-22R1a extracellular domain (ECD) (UniProt Q8N6P7); test: potency assay (binding ELISA on plate-coated IL-22R1a ECD), relative to reference standard; 40 C stress, day 14
[16] = target: IL-22R1a extracellular domain (ECD) (UniProt Q8N6P7); test: binding ELISA on plate-coated IL-22R1a ECD, relative to Reference Standard; pH 7.0 formulation stored 1 week at 40 C
[17] = target: IL-22R1a extracellular domain (ECD) (UniProt Q8N6P7); test: potency assay (binding ELISA on plate-coated IL-22R1a ECD), relative to reference standard (100%); stored 5 C, 6 months
[18] = target: IL-22R1a extracellular domain (ECD) (UniProt Q8N6P7); test: potency assay (binding ELISA on plate-coated IL-22R1a ECD), relative to reference standard (100%); stored 5 C, 3 months
[19] = target: IL-22R1a extracellular domain (ECD) (UniProt Q8N6P7); test: potency assay (binding ELISA on plate-coated IL-22R1a ECD); change after 6 months at 25 C (supportive stability study)
[20] = target: IL-22R1a extracellular domain (ECD) (UniProt Q8N6P7); test: potency assay (binding ELISA on plate-coated IL-22R1a ECD), relative to reference standard (100%); stored 25 C, 2 months
[21] = target: IL-22R1a extracellular domain (ECD) (UniProt Q8N6P7); test: potency assay (binding ELISA on plate-coated IL-22R1a ECD), relative to reference standard (100%); stored 25 C, 6 months
[22] = target: IL-22R1a extracellular domain (ECD) (UniProt Q8N6P7); test: potency assay (binding ELISA on plate-coated IL-22R1a ECD), relative to reference standard (100%); stored 5 C, 42 months
[23] = target: IL-22R1a extracellular domain (ECD) (UniProt Q8N6P7); test: potency assay (binding ELISA on plate-coated IL-22R1a ECD), relative to reference standard (100%); stored 25 C, 6 months; remark: listed apart in the source
[24] = target: IL-22R1a extracellular domain (ECD) (UniProt Q8N6P7); test: potency assay (binding ELISA on plate-coated IL-22R1a ECD), relative to reference standard (100%); stored 5 C, 18 months
[25] = target: IL-22R1a extracellular domain (ECD) (UniProt Q8N6P7); test: potency assay (binding ELISA on plate-coated IL-22R1a ECD), relative to reference standard (100%); stored 5 C, 36 months
[26] = target: IL-22R1a extracellular domain (ECD) (UniProt Q8N6P7); test: potency assay (binding ELISA on plate-coated IL-22R1a ECD), relative to reference standard (100%); stored 5 C, 42 months; remark: listed apart in the source
[27] = target: IL-22R1a extracellular domain (ECD) (UniProt Q8N6P7); test: potency assay (binding ELISA on plate-coated IL-22R1a ECD), relative to reference standard (100%); stored 5 C, 48 months
[28] = target: IL-22R1a extracellular domain (ECD) (UniProt Q8N6P7); test: potency assay (binding ELISA on plate-coated IL-22R1a ECD), relative to reference standard (100%); stored 5 C, 12 months (time printed as 180/12)

UniProt Q8N6P7, sequence (Q8N6P7 16-228 limits assumed): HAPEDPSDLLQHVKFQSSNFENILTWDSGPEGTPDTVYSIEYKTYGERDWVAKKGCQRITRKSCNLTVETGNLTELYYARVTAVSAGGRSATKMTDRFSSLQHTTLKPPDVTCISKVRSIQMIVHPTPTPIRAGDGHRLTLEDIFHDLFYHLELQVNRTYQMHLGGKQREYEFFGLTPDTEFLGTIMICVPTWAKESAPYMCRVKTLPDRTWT

Substance: IL-22 Fc fusion protein
- Potency by Binding Assay (% relative potency) (% relative potency) [1]: 71
- Potency by Binding Assay (% relative potency) (% relative potency) [2]: 108
- Potency by Binding Assay (% relative potency) (% relative potency) [3]: 73
- Potency (% relative potency) (% relative potency) [4]: 101
- Potency by Binding Assay (% relative potency) (% relative potency) [5]: 73
- Potency by Binding Assay (% relative potency) (% relative potency) [6]: 73
- Potency by Binding Assay (% relative potency) (% relative potency) [7]: 104
- Potency by Binding Assay (% relative potency) (% relative potency) [8]: 71
- Potency by Binding Assay (% relative potency) (% relative potency) [9]: 72
- Potency by Binding Assay (% relative potency) (% relative potency) [10]: 91
- Potency by Binding Assay (% relative potency) (% relative potency) [11]: 101
- Potency by Binding Assay (% relative potency) (% relative potency) [12]: 97
- Potency by Binding Assay (% relative potency) (% relative potency) [13]: 107
- Potency (% relative potency) (% relative potency) [14]: 104 and 85
- Potency (% relative potency) (% relative potency) [15]: 71 and 57
- Estimated % relative potency (n = 2) (% relative potency) [16]: 81
- Potency (% relative potency) (% relative potency) [17]: 64
- Potency (% relative potency) (% relative potency) [18]: 104
- loss of % relative potency (% relative potency) [19]: 29
- Potency (% relative potency) (% relative potency) [20]: 60
- Potency (% relative potency) (% relative potency) [21]: 47
- Potency (% relative potency) (% relative potency) [22]: 59
- Potency (% relative potency) (% relative potency) [23]: 72
- Potency (% relative potency) (% relative potency) [24]: 93
- Potency (% relative potency) (% relative potency) [25]: 99
- Potency (% relative potency) (% relative potency) [26]: 87
- Potency (% relative potency) (% relative potency) [27]: 91
- Potency (% relative potency) (% relative potency) [28]: 86
